B1: OprM, FITC-labeled (natural protein)
chain: CSLIPDYQRPEAPVAAAYPQGQAYGQNTGAAAVPAADIGWREFFRDPQLQQLIGVALENNRDLRVAALNVEAFRAQYRIQRADLFPRIGVDGSGTRQRLPGDLSTTGSPAISSQYGVTLGTTAWELDLFGRLRSLRDQALEQYLATEQAQRSAQTTLVASVATAYLTLKADQAQLQLTKDTLGTYQKSFDLTQRSYDVGVASALDLRQAQTAVEGARATLAQYTRLVAQDQNALVLLLGSGIPANLPQGLGLDQTLLTEVPAGLPSDLLQRRPDILEAEHQLMAANASIGAARAAFFPSISLTANAGTMSRQLSGLFDAGSGSWLFQPSINLPIFTAGSLRASLDYAKIQKDINVAQYEKAIQTAFQEVADGLAARGTFTEQLQAQRDLVKASDEYYQLADKRYRTGVDNYLTLLDAQRSLFTAQQQLITDRLNQLTSEVNLYKALGGGWNQQTVTQQQTAKKEDPQA
modifications: FITC label; palmitoyl moiety (said of the protein in general)
notes: OprM, outer membrane protein of the MexA-MexB-OprM efflux pump of Pseudomonas aeruginosa; Same protein as m2, here labeled with FITC and measured alone; also called FITC-labeled OprM; OprM trimer; source: expressed and purified as previously described [50]; labeled with FITC; inserted into the L3 sponge phase
B2: MexA, mature form bearing a palmitoyl moiety, FITC-labeled (natural protein)
chain: CGKSEAPPPAQTPEVGIVTLEAQTVTLNTELPGRTNAFRIAEVRPQVNGIILKRLFKEGSDVKAGQQLYQIDPATYEADYQSAQANLASTQEQAQRYKLLVADQAVSKQQYADANAAYLQSKAAVEQARINLRYTKVLSPISGRIGRSAVTEGALVTNGQANAMATVQQLDPIYVDVTQPSTALLRLRRELASGQLERAGDNAAKVSLKLEDGSQYPLEGRLEFSEVSVDEGTGSVTIRAVFPNPNNELLPGMFVHAQLQEGVKQKAILAPQQGVTRDLKGQATALVVNAQNKVELRVIKADRVIGDKWLVTEGLNAGDKIITEGLQFVQPGVEVKTVPAKNVASAQKADAAPAKTDSKG
modifications: palmitoyl moiety (on the unique N-terminal cysteine); FITC label
notes: MexA, periplasmic lipoprotein of the MexA-MexB-OprM efflux pump of Pseudomonas aeruginosa, in its mature form; Found monomeric in the sponge phase; also called FITC-labeled MexA; periplasmic protein MexA; source: solubilized in 1% beta-octylglucoside, then inserted into the L3 sponge phase

What was measured:
[1] = molecular target: the molecule itself; assay: FRAPP (fluorescence recovery after fringe pattern photobleaching); FITC-labeled OprM alone in the sponge phase, dW>170 A; hydrodynamic radius from the diffusion coefficient compared with crystallographic and electron microscopy data
OprM trimer, unlabeled [2] = molecular target: T1, OprM trimer, unlabeled (Pseudomonas aeruginosa, UniProt Q51487 18-485, palmitoyl moiety (said of the protein in general)); assay: FRAPP (fluorescence recovery after fringe pattern photobleaching); as a5 (dW about 200 A, stoichiometry from free MexA intensity) but at pH 5.5; settings: both partners purified
T1 construct: OprM, outer membrane protein of the MexA-MexB-OprM efflux pump of Pseudomonas aeruginosa; also called outer membrane protein OprM; source: expressed and purified as previously described [50]; solubilized in 1% beta-octylglucoside, then inserted into the L3 sponge phase
T1 sequence: B1 chain

OprM trimer, unlabeled [3] = molecular target: T1, OprM trimer, unlabeled; assay: FRAPP (fluorescence recovery after fringe pattern photobleaching); dW about 200 A, pH 7.5; OprM trimer constant at 1 uM, molar ratio r of FITC-labeled MexA to OprM trimer varied; stoichiometry from the intensity I0 of free MexA; settings: both partners purified

Binder	stoichiometry N [1]	stoichiometry N (OprM trimer, unlabeled [2]) [MexA per OprM trimer]	stoichiometry N (OprM trimer, unlabeled [3]) [MexA per OprM trimer]
B1	3		
B2		6	2

Reference: article PMC2659767, “Tracking Membrane Protein Association in Model Membranes” (PLoS ONE, 2009)
